Here are results for one molecule from patent publication US5686572, “Domains of extracellular region of human platelet derived growth factor receptor polypeptides” (Cor Therapeutics, Inc., dated 1997).

A word on the IC50: it is the concentration needed to halve the response being measured. A high value points to a need for much substance. Broadly, the Kd is the constant that tells how readily two partners part at equilibrium. Read a high Kd as a looser complex.

In test [1] the target is T1, PDGF BB (Homo sapiens (Human), UniProt P01127). Description: solid-phase plate assay, displacement of bound 125I-PDGF BB by unlabeled PDGF BB. The method, then:
(§1) This fraction was then applied to Sephacryl S-200 HR (Pharmacia) equilibrated in 0.15M ammonium bicarbonate pH 7.9. The fractions containing receptor (3–10 ng/μl) were detected by SDS-PAGE and Western blotting with a polyclonal rabbit antibody, made by standard methods, against a Domain 1 (D1) segment from the receptor external region. These fractions (3–10 ng/μl) were used to coat the microtiter wells as described above. The wells were then drained, rinsed once with 200 μl each of 0.5% gelatin (BioRad, EIA grade), 25 mM Hepes, 100 mM NaCl, pH 7.4, and incubated for 1–2 h at 24° C. with 150 μl of this same solution. The wells were drained and rinsed twice with 0.3% gelatin, 25 mM Hepes, 100 mM NaCl, pH 7.4 (150 μl each). […] The bound radioactivity remaining was solubilized from the wells in 200 μl 1% SDS, 0.5% BSA, and counted in a gamma-counter. The nonspecific binding was determined in the presence of a 150-fold excess of unlabeled PDGF BB (Amgen) and was about 7% of the total bound ^125I-PDGF.
(§2) Using iodinated PDGF-BB, the specific binding of less than 10 pg of ligand can be detected in an assay volume of […]. […] The nonspecific binding, determined in the presence of a […] of cold PDGF BB, was usually only about 5–10% of the total binding.

For test [2], the target named is T1, PDGF BB. Kind of test: solid-phase plate assay, 125I-PDGF BB bound after 4 h at 4° C., dissociation in buffer. The protocol:
as §1, §2

Test [3] deals with T1, PDGF BB. Kind of test: competition: soluble receptor fragment against its immobilized form for binding 125I-PDGF BB. The method, then:
as §1, §2

Test [4] has as its target T1, PDGF BB. Kind of test: solid-phase plate assay at 4° C., 125I-PDGF BB on the receptor fragment coated on polystyrene wells, Scatchard analysis. The method, then:
as §1, §2

B1: extracellular region fragment of the type B human PDGF receptor (soluble, PΔ1 construct, D1-D2-D3-D4-D5) (receptor)
chain: LVVTPPGPELVLNVSSTFVLTCSGSAPVVWERMSQEPPQEMAKAQDGTFSSVLTLTNLTGLDTGEYFCTHNDSRGLETDERKRLYIFVPDPTVGFLPNDAEELFIFLTEITEITIPCRVTDPQLVVTLHEKKGDVALPVPYDHQRGFSGIFEDRSYICKTTIGDREVDSDAYYVYRLQVSSINVSVNAVQTVVRQGENITLMCIVIGNDVVNFEWTYPRKESGRLVEPVTDFLLDMPYHIRSILHIPSAELEDSGTYTCNVTESVNDHQDEKAINITVVESGYVRLLGEVGTLQFAELHRSRTLQVVFEAYPPPTVLWFKDNRTLGDSSAGEIALSTRNVSETRYVSELTLVRVKVAEAGHYTMRAFHEDAEVQLSFQLQINVPVRVLELSESHPDSGEQTVRCRGRGMPQPNIIWSACRDLKRCPRELPPTLLGNSSEEESQLETNVTYWEEEQEFEVVSTLRLQH
For the molecule B1, the “t1/2 of displacement by 150-fold excess of unlabeled PDGF BB” value in test [1] is under 1 h. Besides, the “t1/2 of dissociation in binding buffer” value in test [2] was over 6 h. This molecule registered an IC50 in test [3] of 5 nM. This molecule also returned an equilibrium dissociation constant (Kd) in test [4] of about 1 nM.
